Data from patent publication US20140178394A1.

Target: HLA-A*0201 HLA class I MHC monomer (iTopia Epitope Discovery System, coated on plate) (human)
Test: overall rank from iTopia EDS and CEM T2 assays on HLA-A*0201

RANK F-Score: 2
Binder: SLLMWITQV (modifications not checked) [reference peptide 513 (NY-ESO-1), …]
